Assays:
[1] = target: HEL-Dylight488 conjugate (hen egg lysozyme labeled with Dylight488) (chicken) (UniProt P00698); assay: microfluidic fluorescence bead assay; mAb captured on rabbit anti-mouse pAb Protein A beads, labeled antigen in flow
[2] = target: HEL-Dylight633 conjugate (hen egg lysozyme labeled with Dylight633) (chicken) (UniProt P00698); assay: as above
[3] = target: HEL-Dylight633 conjugate (hen egg lysozyme labeled with Dylight633) (chicken) (UniProt P00698); assay: microfluidic fluorescence bead assay; compared with D1.3 mAb on HEL

Row | Kd [1] [nM] | Kd [2] [nM] | koff [2] [s⁻¹] | kon [2] [M⁻¹ s⁻¹] | fold larger association rate constant than D1.3 mAb [3] [fold] | fold smaller dissociation rate constant than D1.3 mAb [3] [fold] | fold smaller equilibrium dissociation constant than D1.3 [3] [fold] | Substance
1 | 1.2 | – | – | – | – | – | – | D1.3 mouse monoclonal antibody (mAb) to lysozyme
2 | – | 0.03 | 0.000169 | 5.75e+06 | 4 | 10 | 40 | HyHEL-5 mouse monoclonal antibody to lysozyme

From patent US20120015347A1
